Results from patent US20210032352A1 (ANTERA THERAPEUTICS, published 2021).

T1: human LRP6 ECD, Fc-tagged (human, UniProt O75581 20-1370)
T1 construct: extracellular domain; Bought; also called LRP co-receptor; not shown: Fc tag of the purchased fusion
T1 sequence (looked up): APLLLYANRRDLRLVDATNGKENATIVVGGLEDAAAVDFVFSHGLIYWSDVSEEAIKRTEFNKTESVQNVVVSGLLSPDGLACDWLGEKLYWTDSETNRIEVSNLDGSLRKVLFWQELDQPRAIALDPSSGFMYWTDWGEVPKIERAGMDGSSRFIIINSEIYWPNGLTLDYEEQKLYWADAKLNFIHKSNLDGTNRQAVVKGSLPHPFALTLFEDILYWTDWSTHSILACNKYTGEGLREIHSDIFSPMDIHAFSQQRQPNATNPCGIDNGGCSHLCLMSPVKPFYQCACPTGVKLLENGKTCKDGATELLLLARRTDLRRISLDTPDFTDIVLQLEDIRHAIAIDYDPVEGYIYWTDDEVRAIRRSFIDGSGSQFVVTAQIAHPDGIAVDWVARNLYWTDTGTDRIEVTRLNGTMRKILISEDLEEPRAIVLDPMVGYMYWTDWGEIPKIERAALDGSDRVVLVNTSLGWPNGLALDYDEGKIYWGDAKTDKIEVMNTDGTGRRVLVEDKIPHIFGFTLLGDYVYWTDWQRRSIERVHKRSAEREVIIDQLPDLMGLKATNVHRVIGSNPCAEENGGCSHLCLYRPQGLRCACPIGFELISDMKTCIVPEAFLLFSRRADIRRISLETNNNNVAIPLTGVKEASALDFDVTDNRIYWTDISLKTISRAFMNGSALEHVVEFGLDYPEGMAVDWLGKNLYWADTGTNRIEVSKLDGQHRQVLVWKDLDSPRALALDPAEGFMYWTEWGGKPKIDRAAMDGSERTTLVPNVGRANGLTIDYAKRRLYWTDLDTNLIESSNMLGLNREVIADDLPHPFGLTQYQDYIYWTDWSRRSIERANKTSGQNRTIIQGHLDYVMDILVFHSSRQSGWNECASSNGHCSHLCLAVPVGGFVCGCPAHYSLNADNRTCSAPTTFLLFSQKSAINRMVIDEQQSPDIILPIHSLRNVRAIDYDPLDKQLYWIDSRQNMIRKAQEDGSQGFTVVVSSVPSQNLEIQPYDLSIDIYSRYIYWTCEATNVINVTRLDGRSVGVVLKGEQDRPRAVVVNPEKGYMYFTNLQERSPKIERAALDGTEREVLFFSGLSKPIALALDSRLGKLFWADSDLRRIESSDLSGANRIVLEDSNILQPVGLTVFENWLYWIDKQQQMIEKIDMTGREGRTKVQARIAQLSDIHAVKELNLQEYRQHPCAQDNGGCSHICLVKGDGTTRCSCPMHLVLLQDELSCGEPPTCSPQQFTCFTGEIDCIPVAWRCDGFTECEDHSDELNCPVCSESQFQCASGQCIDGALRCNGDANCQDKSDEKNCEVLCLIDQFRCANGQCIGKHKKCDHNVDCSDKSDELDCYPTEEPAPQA


What was measured:
Experiment in all cases: kinetic table (called BLI in paragraph 35); quantity name and unit not printed in the table: KD in M follows from FIG. 12A
FZD1 CRD, Fc-tagged = biological target: T2, FZD1 CRD, Fc-tagged (human, UniProt Q9UP38 70-250)
T2 construct: domain: CRD; Bought; not shown: Fc tag of the purchased fusion

FZD2 CRD, Fc-tagged = biological target: T3, FZD2 CRD, Fc-tagged (human, UniProt Q14332 24-190)
T3 construct: domain: CRD; Bought; not shown: Fc tag of the purchased fusion

FZD7 CRD, Fc-tagged = FZD7 CRD, Fc-tagged (human, UniProt O75084 33-185)
[1] = biological target: T1, human LRP6 ECD, Fc-tagged

T2 sequence (Q9UP38 70-250): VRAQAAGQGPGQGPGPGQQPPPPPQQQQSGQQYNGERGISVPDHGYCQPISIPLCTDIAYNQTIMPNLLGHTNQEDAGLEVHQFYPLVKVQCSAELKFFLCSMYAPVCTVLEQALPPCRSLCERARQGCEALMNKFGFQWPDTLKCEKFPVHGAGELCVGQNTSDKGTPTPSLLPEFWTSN

Binder	Kd (FZD1 CRD, Fc-tagged)	Kd (FZD2 CRD, Fc-tagged)	Kd (FZD7 CRD, Fc-tagged)	Kd [1]
F^P*+P*-L6^1+3 (bispecific antibody) knob: DIQMTQSPSSLSASVGDRVTITCRASQSVSSAVAWYQQKPGKAPKLLIYSASSLYSGVPSRFSGSRSGTDFTLTISSLQPEDFATYYCQQGVYLFTFGQGTKVEIKGTTAASGSSGGSSSGAEVQLVESGGGLVQPGGSLRLSCAASGFNIGSSSIHWVRQAPGKGLEWVASIYSAFASTSYADSVKGRFTISADTSKNTAYLQMNSLRAEDTAVYYCARYHFPFGFALDYWGQGTLVTVSSLEDKTHTKVEPKTSDKTHTCPPCPAPELLGGPSVFLFPPKPKDTLMISRTPEVTCVVVDVSHEDPEVKFNWYVDGVEVHNAKTKPREEQYNSTYRVVSVLTVLHQDWLNGKEYKCKVSNKALPAPIEKTISKAKGQPREPMVFDLPPSREEMTKNQVSLWCMVKGFYPSDIAVEWESNGQPENNYKTTPPVLDSDGSFFLYSKLTVDKSRWQQGNVFSCSVMHEALHNHYTQKSLSLSPGKSGSETPGTSESATPESGGGEVQLVESGGGLVQPGGSLRLSCAASGFNISYSSIHWVRQAPGKGLEWVAYISSYYGYTYYADSVKGRFTISADTSKNTAYLQMNSLRAEDTAVYYCARAHYFPWAGAMDYWGQGTLVTVSSGGGGSDIQMTQSPSSLSASVGDRVTITCRASQSVSSAVAWYQQKPGKAPKLLIYSASSLYSGVPSRFSGSRSGTDFTLTISSLQPEDFATYYCQQYYWPITFGQGTKVEIK hole: DIQMTQSPSSLSASVGDRVTITCRASQSVSSAVAWYQQKPGKAPKLLIYSASSLYSGVPSRFSGSRSGTDFTLTISSLQPEDFATYYCQQGVYLFTFGQGTKVEIKGTTAASGSSGGSSSGAEVQLVESGGGLVQPGGSLRLSCAASGFNIGSSSIHWVRQAPGKGLEWVASIYSAFASTSYADSVKGRFTISADTSKNTAYLQMNSLRAEDTAVYYCARYHFPFGFALDYWGQGTLVTVSSLEDKTHTKVEPKSSDKTHNCPPCPAPELLGGPSVFLFPPKPKDTLMISRTPEVTCVVVDVSHEDPEVKFNWYVDGVEVHNAKTKPREEQYNSTYRVVSVLTVLHQDWLNGKEYKCKVSNKALPAPIEKTISKAKGQPREPQVYTLPPIRELMTSNQVSLSCAVKGFYPSDIAVEWESNGQPENNYKTTPPVLDSDGSFFLVSKLTVDKSRWQQGNVFSCSVMHEALHNHYTQKSLSLSPGKSGSETPGTSESATPESGGGEVQLVESGGGLVQPGGSLRLSCAASGFNISSYYIHWVRQAPGKGLEWVASIYSSYGYTSYADSVKGRFTISADTSKNTAYLQMNSLRAEDTAVYYCARTVRGSKKPYFSGWAMDYWGQGTLVTVSSGGGGSDIQMTQSPSSLSASVGDRVTITCRASQSVSSAVAWYQQKPGKAPKLLIYSASSLYSGVPSRFSGSRSGTDFTLTISSLQPEDFATYYCQQYSWGPFTFGQGTKVEIK	0.09 nM	0.084 nM	0.027 nM	8.2 nM
F^P*+P*-L6^1*+3* (bispecific antibody) chain 1: DIQMTQSPSSLSASVGDRVTITCRASQSVSSAVAWYQQKPGKAPKLLIYSASSLYSGVPSRFSGSRSGTDFTLTISSLQPEDFATYYCQQGVYLFTFGQGTKVEIKGTTAASGSSGGSSSGAEVQLVESGGGLVQPGGSLRLSCAASGFNIGSSSIHWVRQAPGKGLEWVASIYSAFASTSYADSVKGRFTISADTSKNTAYLQMNSLRAEDTAVYYCARYHFPFGFALDYWGQGTLVTVSSLEDKTHTKVEPKTSDKTHTCPPCPAPELLGGPSVFLFPPKPKDTLMISRTPEVTCVVVDVSHEDPEVKFNWYVDGVEVHNAKTKPREEQYNSTYRVVSVLTVLHQDWLNGKEYKCKVSNKALPAPIEKTISKAKGQPREPMVFDLPPSREEMTKNQVSLWCMVKGFYPSDIAVEWESNGQPENNYKTTPPVLDSDGSFFLYSKLTVDKSRWQQGNVFSCSVMHEALHNHYTQKSLSLSPGKSGSETPGTSESATPESGGGDIQMTQSPSSLSASVGDRVTITCRASQSVSSAVAWYQQKPGKAPKLLIYSASSLYSGVPSRFSGSRSGTDFTLTISSLQPEDFATYYCQQYSWGPFTFGQGTKVEIKGTTAASGSSGGSSSGAEVQLVESGGGLVQPGGSLRLSCAASGFNISYSSIHWVRQAPGKGLEWVAYISSYYGYTYYADSVKGRFTISADTSKNTAYLQMNSLRAEDTAVYYCARAHYFPWAGAMDYWGQGTLVTVSS chain 2: DIQMTQSPSSLSASVGDRVTITCRASQSVSSAVAWYQQKPGKAPKLLIYSASSLYSGVPSRFSGSRSGTDFTLTISSLQPEDFATYYCQQGVYLFTFGQGTKVEIKGTTAASGSSGGSSSGAEVQLVESGGGLVQPGGSLRLSCAASGFNIGSSSIHWVRQAPGKGLEWVASIYSAFASTSYADSVKGRFTISADTSKNTAYLQMNSLRAEDTAVYYCARYHFPFGFALDYWGQGTLVTVSSLEDKTHTKVEPKSSDKTHNCPPCPAPELLGGPSVFLFPPKPKDTLMISRTPEVTCVVVDVSHEDPEVKFNWYVDGVEVHNAKTKPREEQYNSTYRVVSVLTVLHQDWLNGKEYKCKVSNKALPAPIEKTISKAKGQPREPQVYTLPPIRELMTSNQVSLSCAVKGFYPSDIAVEWESNGQPENNYKTTPPVLDSDGSFFLVSKLTVDKSRWQQGNVFSCSVMHEALHNHYTQKSLSLSPGKSGSETPGTSESATPESGGGDIQMTQSPSSLSASVGDRVTITCRASQSVSSAVAWYQQKPGKAPKLLIYSASSLYSGVPSRFSGSRSGTDFTLTISSLQPEDFATYYCQQYYWPITFGQGTKVEIKGTTAASGSSGGSSSGAEVQLVESGGGLVQPGGSLRLSCAASGFNISSYYIHWVRQAPGKGLEWVASIYSSYGYTSYADSVKGRFTISADTSKNTAYLQMNSLRAEDTAVYYCARTVRGSKKPYFSGWAMDYWGQGTLVTVSS	0.13 nM	0.15 nM	0.1 nM	9.7 nM
